In IntAct's records for PubMed 20007317:

B1: SAGA complex subunit SGF11 (Saccharomyces cerevisiae), Q03067 (parent)
chain: MTEETITIDSISNGILNNLLTTLIQDIVARETTQQQLLKTRYPDLRSYYFDPNGSLDINGLQKQQESSQYIHCENCGRDVSANRLAAHLQRCLSRGARR
partner: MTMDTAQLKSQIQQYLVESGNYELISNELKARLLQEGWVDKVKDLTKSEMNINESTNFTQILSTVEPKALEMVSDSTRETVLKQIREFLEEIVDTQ

Variants of: B1
Conditions: with sus1_yeast SUS1, Q6WNK7

Effect of a mutation on the interaction, decreasing interaction:
MTEETITIDSISNGILNALLTTLIQDIVARETTQQQLLKTRYPDLRSYYFDPNGSLDINGLQKQQESSQYIHCENCGRDVSANRLAAHLQRCLSRGARR [N18A]
MTEETITIDSISNGALNNLLTTLIQDIVARETTQQQLLKTRYPDLRSYYFDPNGSLDINGLQKQQESSQYIHCENCGRDVSANRLAAHLQRCLSRGARR [I15A]
MTEETITIDSISNGILNNALTTLIQDIVARETTQQQLLKTRYPDLRSYYFDPNGSLDINGLQKQQESSQYIHCENCGRDVSANRLAAHLQRCLSRGARR [L19A]
